Assay results published in paper PMC10786891, “Massively parallel profiling of RNA-targeting CRISPR-Cas13d”.

T1: EsCas13d, nuclease-dead (Eubacterium siraeum, UniProt B0MS50, R295A;H300A;R849A;H854A)
T1 sequence: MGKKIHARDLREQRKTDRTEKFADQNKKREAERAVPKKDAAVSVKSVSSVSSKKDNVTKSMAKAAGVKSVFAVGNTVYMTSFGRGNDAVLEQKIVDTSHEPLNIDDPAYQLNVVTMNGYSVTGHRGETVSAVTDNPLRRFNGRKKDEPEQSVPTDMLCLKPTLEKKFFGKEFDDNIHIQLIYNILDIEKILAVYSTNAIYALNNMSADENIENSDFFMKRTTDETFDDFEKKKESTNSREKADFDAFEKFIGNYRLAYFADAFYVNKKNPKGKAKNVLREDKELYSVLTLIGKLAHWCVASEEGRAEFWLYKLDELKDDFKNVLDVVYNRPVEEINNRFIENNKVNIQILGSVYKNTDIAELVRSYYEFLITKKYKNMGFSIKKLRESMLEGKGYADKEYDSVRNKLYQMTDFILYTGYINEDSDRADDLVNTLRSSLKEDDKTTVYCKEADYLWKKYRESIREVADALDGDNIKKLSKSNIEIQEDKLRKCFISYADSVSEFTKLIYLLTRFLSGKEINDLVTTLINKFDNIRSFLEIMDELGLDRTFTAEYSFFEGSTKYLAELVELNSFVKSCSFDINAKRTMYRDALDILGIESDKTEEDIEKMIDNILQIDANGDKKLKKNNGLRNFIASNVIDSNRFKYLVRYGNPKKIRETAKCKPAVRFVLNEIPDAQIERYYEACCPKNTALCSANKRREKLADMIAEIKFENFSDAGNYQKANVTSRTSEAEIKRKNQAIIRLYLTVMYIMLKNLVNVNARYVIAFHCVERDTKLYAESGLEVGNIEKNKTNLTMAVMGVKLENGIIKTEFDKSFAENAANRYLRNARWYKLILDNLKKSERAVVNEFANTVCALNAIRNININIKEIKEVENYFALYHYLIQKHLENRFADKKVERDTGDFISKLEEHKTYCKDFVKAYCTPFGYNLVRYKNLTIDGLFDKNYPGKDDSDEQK


Molecular target: T1, EsCas13d, nuclease-dead
Test: crRNA (strand 1, pre-loaded); Mg2+; 40 mM Tris-HCl pH 7.5, 150 mM NaCl, 6 mM MgCl2, 1 mM DTT, 0.1% Tween-20, 0.2 mg/ml BSA; 25 C; 10 min per concentration, then washed
Conditions: tags: His6-TwinStrep-SUMO cleaved; N-terminal SNAP kept (SNAP-Surface 488); label: 3' end held by stalled T7 RNA polymerase

Row | Binder | Kd
1 | target 1 insC 3' of 12,insU 3' of 1 (mixed) RNA 1: CACCCGUGCAAAAAUGCAGGGGUCUAAAACUGAGCGGAUAACCUCUCUAUGG RNA 2: GGGAAUGGAUCCACAUCUACGAAUUCGUACCAUAGAGAGGCUUAUCCGCUCAUCCGAGAUCGGAAGAGCACACGU | 0.012 ± 0.0011 µM
2 | target 1 C6G,U19A (mixed) RNA 1: CACCCGUGCAAAAAUGCAGGGGUCUAAAACUGAGCGGAUAACCUCUCUAUGG RNA 2: GGGAAUGGAUCCACAUCUACGAAUUCGUACCAAAGAGAGGUUAUCGGCUCACCGAGAUCGGAAGAGCACACGU | 0.035 ± 0.005 µM
3 | target 1 insC 3' of 22,insA 3' of 11 (mixed) RNA 1: CACCCGUGCAAAAAUGCAGGGGUCUAAAACUGAGCGGAUAACCUCUCUAUGG RNA 2: GGGAAUGGAUCCACAUCUACGAAUUCGUACCCAUAGAGAGGUAUAUCCGCUCACCGAGAUCGGAAGAGCACACGU | 0.033 ± 0.005 µM
4 | target 1 insU 3' of 15,insC 3' of 9 (mixed) RNA 1: CACCCGUGCAAAAAUGCAGGGGUCUAAAACUGAGCGGAUAACCUCUCUAUGG RNA 2: GGGAAUGGAUCCACAUCUACGAAUUCGUACCAUAGAGUAGGUUACUCCGCUCACCGAGAUCGGAAGAGCACACGU | 0.067 ± 0.007 µM
5 | target 1 insA 3' of 13,insU 3' of 9 (mixed) RNA 1: CACCCGUGCAAAAAUGCAGGGGUCUAAAACUGAGCGGAUAACCUCUCUAUGG RNA 2: GGGAAUGGAUCCACAUCUACGAAUUCGUACCAUAGAGAGAGUUAUUCCGCUCACCGAGAUCGGAAGAGCACACGU | 0.0046 ± 0.0005 µM
6 | target 1 insC 3' of 18,insA 3' of 4 (mixed) RNA 1: CACCCGUGCAAAAAUGCAGGGGUCUAAAACUGAGCGGAUAACCUCUCUAUGG RNA 2: GGGAAUGGAUCCACAUCUACGAAUUCGUACCAUACGAGAGGUUAUCCGCAUCACCGAGAUCGGAAGAGCACACGU | 0.038 ± 0.009 µM
7 | target 1 U8C,G17U (mixed) RNA 1: CACCCGUGCAAAAAUGCAGGGGUCUAAAACUGAGCGGAUAACCUCUCUAUGG RNA 2: GGGAAUGGAUCCACAUCUACGAAUUCGUACCAUAUAGAGGUUACCCGCUCACCGAGAUCGGAAGAGCACACGU | 0.041 ± 0.004 µM
8 | target 1 insC 3' of 11,insA 3' of 6 (mixed) RNA 1: CACCCGUGCAAAAAUGCAGGGGUCUAAAACUGAGCGGAUAACCUCUCUAUGG RNA 2: GGGAAUGGAUCCACAUCUACGAAUUCGUACCAUAGAGAGGUCUAUCCAGCUCACCGAGAUCGGAAGAGCACACGU | 0.047 ± 0.014 µM
9 | target 1 C6U,C7A (mixed) RNA 1: CACCCGUGCAAAAAUGCAGGGGUCUAAAACUGAGCGGAUAACCUCUCUAUGG RNA 2: GGGAAUGGAUCCACAUCUACGAAUUCGUACCAUAGAGAGGUUAUAUGCUCACCGAGAUCGGAAGAGCACACGU | 0.0086 ± 0.0006 µM
10 | target 1 insC 3' of 12,insC 3' of 1 (mixed) RNA 1: CACCCGUGCAAAAAUGCAGGGGUCUAAAACUGAGCGGAUAACCUCUCUAUGG RNA 2: GGGAAUGGAUCCACAUCUACGAAUUCGUACCAUAGAGAGGCUUAUCCGCUCACCCGAGAUCGGAAGAGCACACGU | 0.0077 ± 0.0005 µM
11 | target 1 U11A,A18G (mixed) RNA 1: CACCCGUGCAAAAAUGCAGGGGUCUAAAACUGAGCGGAUAACCUCUCUAUGG RNA 2: GGGAAUGGAUCCACAUCUACGAAUUCGUACCAUGGAGAGGAUAUCCGCUCACCGAGAUCGGAAGAGCACACGU | 0.08 ± 0.04 µM
12 | target 1 A9U,U10C (mixed) RNA 1: CACCCGUGCAAAAAUGCAGGGGUCUAAAACUGAGCGGAUAACCUCUCUAUGG RNA 2: GGGAAUGGAUCCACAUCUACGAAUUCGUACCAUAGAGAGGUCUUCCGCUCACCGAGAUCGGAAGAGCACACGU | 0.0086 ± 0.0009 µM
13 | target 1 C2G,U8G (mixed) RNA 1: CACCCGUGCAAAAAUGCAGGGGUCUAAAACUGAGCGGAUAACCUCUCUAUGG RNA 2: GGGAAUGGAUCCACAUCUACGAAUUCGUACCAUAGAGAGGUUAGCCGCUGACCGAGAUCGGAAGAGCACACGU | 0.0174 ± 0.0008 µM
14 | target 1 complement block 3-10 (mixed) RNA 1: CACCCGUGCAAAAAUGCAGGGGUCUAAAACUGAGCGGAUAACCUCUCUAUGG RNA 2: GGGAAUGGAUCCACAUCUACGAAUUCGUACCAUAGAGAGGUAUAGGCGACACCGAGAUCGGAAGAGCACACGU | 0.0122 ± 0.00034 µM
15 | target 1 insU 3' of 15,insU 3' of 7 (mixed) RNA 1: CACCCGUGCAAAAAUGCAGGGGUCUAAAACUGAGCGGAUAACCUCUCUAUGG RNA 2: GGGAAUGGAUCCACAUCUACGAAUUCGUACCAUAGAGUAGGUUAUCUCGCUCACCGAGAUCGGAAGAGCACACGU | 0.00847 ± 0.00027 µM
16 | target 1 insA 3' of 12,insU 3' of 5 (mixed) RNA 1: CACCCGUGCAAAAAUGCAGGGGUCUAAAACUGAGCGGAUAACCUCUCUAUGG RNA 2: GGGAAUGGAUCCACAUCUACGAAUUCGUACCAUAGAGAGGAUUAUCCGUCUCACCGAGAUCGGAAGAGCACACGU | 0.0354 ± 0.0028 µM
17 | target 1 insG 3' of 16,insA 3' of 13 (mixed) RNA 1: CACCCGUGCAAAAAUGCAGGGGUCUAAAACUGAGCGGAUAACCUCUCUAUGG RNA 2: GGGAAUGGAUCCACAUCUACGAAUUCGUACCAUAGAGGAGAGUUAUCCGCUCACCGAGAUCGGAAGAGCACACGU | 0.0161 ± 0.0015 µM
18 | target 1 insC 3' of 12,insG 3' of 1 (mixed) RNA 1: CACCCGUGCAAAAAUGCAGGGGUCUAAAACUGAGCGGAUAACCUCUCUAUGG RNA 2: GGGAAUGGAUCCACAUCUACGAAUUCGUACCAUAGAGAGGCUUAUCCGCUCAGCCGAGAUCGGAAGAGCACACGU | 0.0085 ± 0.0012 µM
19 | target 1 insG 3' of 22,insC 3' of 3 (mixed) RNA 1: CACCCGUGCAAAAAUGCAGGGGUCUAAAACUGAGCGGAUAACCUCUCUAUGG RNA 2: GGGAAUGGAUCCACAUCUACGAAUUCGUACGCAUAGAGAGGUUAUCCGCUCCACCGAGAUCGGAAGAGCACACGU | 0.0312 ± 0.0034 µM
20 | target 1 insU 3' of 18,insA 3' of 7 (mixed) RNA 1: CACCCGUGCAAAAAUGCAGGGGUCUAAAACUGAGCGGAUAACCUCUCUAUGG RNA 2: GGGAAUGGAUCCACAUCUACGAAUUCGUACCAUAUGAGAGGUUAUCACGCUCACCGAGAUCGGAAGAGCACACGU | 0.0236 ± 0.0026 µM
21 | target 1 insA 3' of 22 (mixed) RNA 1: CACCCGUGCAAAAAUGCAGGGGUCUAAAACUGAGCGGAUAACCUCUCUAUGG RNA 2: GGGAAUGGAUCCACAUCUACGAAUUCGUACACAUAGAGAGGUUAUCCGCUCACCGAGAUCGGAAGAGCACACGU | 0.0148 ± 0.0011 µM
22 | target 1 insG 3' of 8,insG 3' of 7 (mixed) RNA 1: CACCCGUGCAAAAAUGCAGGGGUCUAAAACUGAGCGGAUAACCUCUCUAUGG RNA 2: GGGAAUGGAUCCACAUCUACGAAUUCGUACCAUAGAGAGGUUAUGCGCGCUCACCGAGAUCGGAAGAGCACACGU | 0.00824 ± 0.00023 µM
23 | target 1 insU 3' of 21,insA 3' of 10 (mixed) RNA 1: CACCCGUGCAAAAAUGCAGGGGUCUAAAACUGAGCGGAUAACCUCUCUAUGG RNA 2: GGGAAUGGAUCCACAUCUACGAAUUCGUACCUAUAGAGAGGUUAAUCCGCUCACCGAGAUCGGAAGAGCACACGU | 0.0392 ± 0.0024 µM
24 | target 1 insC 3' of 12,insA 3' of 2 (mixed) RNA 1: CACCCGUGCAAAAAUGCAGGGGUCUAAAACUGAGCGGAUAACCUCUCUAUGG RNA 2: GGGAAUGGAUCCACAUCUACGAAUUCGUACCAUAGAGAGGCUUAUCCGCUCAACCGAGAUCGGAAGAGCACACGU | 0.0099 ± 0.0011 µM
25 | target 1 U3A,A16C (mixed) RNA 1: CACCCGUGCAAAAAUGCAGGGGUCUAAAACUGAGCGGAUAACCUCUCUAUGG RNA 2: GGGAAUGGAUCCACAUCUACGAAUUCGUACCAUAGCGAGGUUAUCCGCACACCGAGAUCGGAAGAGCACACGU | 0.076 ± 0.007 µM
26 | target 1 insC 3' of 9,insG 3' of 8 (mixed) RNA 1: CACCCGUGCAAAAAUGCAGGGGUCUAAAACUGAGCGGAUAACCUCUCUAUGG RNA 2: GGGAAUGGAUCCACAUCUACGAAUUCGUACCAUAGAGAGGUUACUGCCGCUCACCGAGAUCGGAAGAGCACACGU | 0.0111 ± 0.0004 µM
27 | target 1 C4A,G5U (mixed) RNA 1: CACCCGUGCAAAAAUGCAGGGGUCUAAAACUGAGCGGAUAACCUCUCUAUGG RNA 2: GGGAAUGGAUCCACAUCUACGAAUUCGUACCAUAGAGAGGUUAUCCUAUCACCGAGAUCGGAAGAGCACACGU | 0.0306 ± 0.0024 µM
28 | target 1 C6A,C21U (mixed) RNA 1: CACCCGUGCAAAAAUGCAGGGGUCUAAAACUGAGCGGAUAACCUCUCUAUGG RNA 2: GGGAAUGGAUCCACAUCUACGAAUUCGUACUAUAGAGAGGUUAUCAGCUCACCGAGAUCGGAAGAGCACACGU | 0.00648 ± 0.00021 µM
